Experiments:
[1] = molecular target: T1, soluble His-tagged hepsin comprising the entire extracellular domain of human hepsin (Arg45-Leu417) (human, UniProt P05981 45-417); assay: enzyme inhibition, 0.5 nM hepsin, chromogenic substrate S2366; apparent Ki (Ki*) from tight-binding fit
T1 construct: range 45-417; also called soluble hepsin; recombinant soluble hepsin; not shown: His tag
Method: (§1) After substrate addition, the linear rates of the increase in absorbance at 405 nm was measured on a kinetic microplate reader (Molecular Devices, Sunnyvale, Calif.).

[2] = molecular target: T2, matriptase protease domain (UniProt Q9Y5Y6 615-855, limits assumed); assay: enzyme inhibition, 0.5 nM matriptase, chromogenic substrate S2765; apparent Ki (Ki*) from tight-binding fit
T2 construct: domain: protease domain
T2 sequence (looked up): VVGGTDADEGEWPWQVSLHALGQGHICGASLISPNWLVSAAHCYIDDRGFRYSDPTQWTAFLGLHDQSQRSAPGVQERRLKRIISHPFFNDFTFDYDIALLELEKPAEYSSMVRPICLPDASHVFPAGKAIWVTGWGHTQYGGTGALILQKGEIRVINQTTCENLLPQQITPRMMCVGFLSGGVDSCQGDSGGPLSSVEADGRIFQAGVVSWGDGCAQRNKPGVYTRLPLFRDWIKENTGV
Method: as §1

T1 sequence (P05981 45-417 limits assumed): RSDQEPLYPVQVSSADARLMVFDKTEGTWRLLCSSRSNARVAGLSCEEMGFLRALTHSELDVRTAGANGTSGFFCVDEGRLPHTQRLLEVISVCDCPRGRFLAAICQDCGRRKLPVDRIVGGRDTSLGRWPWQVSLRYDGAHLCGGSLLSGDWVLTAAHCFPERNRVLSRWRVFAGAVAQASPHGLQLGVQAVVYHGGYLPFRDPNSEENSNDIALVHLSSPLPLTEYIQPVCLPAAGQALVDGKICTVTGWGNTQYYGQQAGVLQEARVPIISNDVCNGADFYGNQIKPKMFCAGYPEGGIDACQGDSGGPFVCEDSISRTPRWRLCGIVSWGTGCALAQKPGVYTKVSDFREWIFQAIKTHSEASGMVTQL

B1: soluble HAI-2 (hepatocyte growth factor activator inhibitor-2) (other, UniProt O43291 28-197, looked up)
chain: ADRERSIHDFCLVSKVVGRCRASMPRWWYNVTDGSCQLFVYGGCDGNSNNYLTKEECLKKCATVTENATGDLATSRNAADSSVPSAPRRQDSEDHSSDMFNYEEYCTANAVTGPCRASFPRWYFDVERNSCNNFIYGGCRGNKNSYRSEEACMLRCFRQQENPPLPLGSK
Ki [1]: 260 pM | Ki [2]: 850 pM

Source: patent publication US20100061996A1 (Genentech, published 2010)
